Results taken from US20130172283A1, “LYOPHILIZED FORMULATION OF PECTIN-ADRIAMYCIN CONJUGATE AND PREPARATION METHOD THEREOF” (CHONGQING LUMMY PHARMACEUTICAL CO., LTD., priority 2010, published 2013).

Experiments:
[1] = solubility tests of PAC; assay type: physicochemical; details: repeated solubility tests
From the text: Insoluble drugs have two major problems in clinical application, one problem is low bioavailability due to low solubility of the drugs, and the other problem is that conventional formulation methods have certain restriction on application of the insoluble drugs.

[2] = monitoring of drug loading rate in long-term storage (UV absorbance at 480 nm); assay type: physicochemical; details: initial, bulk drug
Protocol: 10.7 mg adriamycin hydrochloride was precisely weighed and placed in a 100 mL volumetric flask, diluted with sterile water for injection to volume as stock solution, and underwent ultrasonic treatment for 5 min for even mixing; 0.2 ml, 0.4 ml, 0.8 ml, 1.2 ml, 1.6 ml and 2 ml adriamycin hydrochloride stock solution were pipetted and placed in 5 ml volumetric flasks respectively, diluted with sterile water for injection to volume, and shook up. Using ultraviolet spectrophotometry, absorbance A values of adriamycin solution were determined at the series of concentration gradients at 480 nm, and linear regression was performed by taking absorbance A as a vertical coordinate and mass concentration C (mg·mL-1) of adriamycin as horizontal coordinate to obtain an equation: A=0.0178C+0.0284, R2=0.9994 (n=3).
1 mL PAC nanosuspension (prepared according to a preferable solution) was precisely pipetted and placed in a 50 mL volumetric flask (concentration of the PAC nanosuspension was 7.76 mg/mL), diluted with sterile water for injection to volume and shook up, and then proper amount was pipetted to determine absorbance at 480 nm so as to obtain adriamycin concentration Cx with the standard curve. Drug loading rate of the PAC=(Cx/7.76)*100%. […]

Substance: pectin-adriamycin conjugate [PAC]
- solubility [1]: insoluble
- drug loading rate [2]: 25.8%
